Experiment [1] concerns the target wild type human KIT on cells (TF-1, Ba/F3-KIT, UT-7/EPO) (human) (UniProt P10721). The experiment is described as follows: cell-based or functional assay.
For experiment [2], the target named is T1, recombinant soluble human KIT extracellular domain (KIT-ECD), C-terminal 6His tag (human, UniProt P10721 26-509, biotinylated in the yeast display assays (sites not given)).
T1 construct: range 26-509; Made in High Five insect cells with a baculovirus, purified on Ni-NTA; major protein of 60 kD; Monovalent; also called c-KIT ECD; recombinant KIT
T1 sequence (P10721 other isoform, or with tags, fused parts or gaps limits assumed): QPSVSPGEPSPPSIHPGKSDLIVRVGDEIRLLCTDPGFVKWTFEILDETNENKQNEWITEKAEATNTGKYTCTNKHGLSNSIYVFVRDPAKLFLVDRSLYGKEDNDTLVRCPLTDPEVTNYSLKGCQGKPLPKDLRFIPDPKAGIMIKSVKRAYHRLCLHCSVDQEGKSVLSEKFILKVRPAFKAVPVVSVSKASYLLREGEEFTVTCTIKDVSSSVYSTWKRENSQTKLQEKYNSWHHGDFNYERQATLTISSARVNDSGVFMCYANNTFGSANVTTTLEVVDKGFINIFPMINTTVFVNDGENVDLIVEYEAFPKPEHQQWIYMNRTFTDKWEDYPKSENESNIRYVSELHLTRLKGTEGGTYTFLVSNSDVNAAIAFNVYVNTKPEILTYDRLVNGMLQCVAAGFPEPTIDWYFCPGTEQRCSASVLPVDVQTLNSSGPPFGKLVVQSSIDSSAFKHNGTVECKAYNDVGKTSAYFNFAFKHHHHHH
The experiment is described as follows: flow cytometry of yeast displaying the scFv with biotinylated KIT-ECD, streptavidin-PE. Background: A flow cytometer gives signals particle by particle.

Experiment [3] concerns the target T2, human KIT V560G D816V as expressed on HMC1.2 mastocytoma cells (human, UniProt P10721 26-976).
T2 construct: whole, on cells; also called endogenous KIT on HMC1.2
The experiment is described as follows: FACS on HMC1.2 cells, soluble scFv from concentrated bacterial supernatant, detected with anti-c-myc and anti-mouse Ig-PE [panel D].
Method: (D) FACS analysis of scFv binding to HMC1.2 cells. ScFvs were induced with IPTG 1 mM overnight at 25° C. from TG1 bacterial containing pHEN phagemid. Supernatant was collected, concentrated on Amicon ultra-4 centrifugal units and incubated with HMC1.2 cells at 4° C. ScFv binding to cells was detected with an anti-c-myc antibody and anti-mouse immunoglobulins conjugated to phycoerythrin. Fluorescence was measured by FACS.
Two hundred thousand HMC1.2 cells were resuspended in 100 μL of PBS-1% FBS at 4° C. (FACS buffer). One hundred μL of culture supernatant was added to the cells during 2 hours at 4° C. Cells were washed with FACS buffer and scFv binding to cells was detected with an anti-c-myc antibody (9E10; Sigma) followed by goat anti-mouse immunoglobulins (Ig) conjugated to PE (Beckton Dickinson).

Experiment [4] deals with T1, recombinant soluble human KIT …. The experiment is described as follows: soluble scFv ELISA on KIT-ECD. (In general: In an ELISA, binding on a coated surface is turned into a signal by an enzyme label.)

T2 sequence (P10721 26-976 V560G/D816V): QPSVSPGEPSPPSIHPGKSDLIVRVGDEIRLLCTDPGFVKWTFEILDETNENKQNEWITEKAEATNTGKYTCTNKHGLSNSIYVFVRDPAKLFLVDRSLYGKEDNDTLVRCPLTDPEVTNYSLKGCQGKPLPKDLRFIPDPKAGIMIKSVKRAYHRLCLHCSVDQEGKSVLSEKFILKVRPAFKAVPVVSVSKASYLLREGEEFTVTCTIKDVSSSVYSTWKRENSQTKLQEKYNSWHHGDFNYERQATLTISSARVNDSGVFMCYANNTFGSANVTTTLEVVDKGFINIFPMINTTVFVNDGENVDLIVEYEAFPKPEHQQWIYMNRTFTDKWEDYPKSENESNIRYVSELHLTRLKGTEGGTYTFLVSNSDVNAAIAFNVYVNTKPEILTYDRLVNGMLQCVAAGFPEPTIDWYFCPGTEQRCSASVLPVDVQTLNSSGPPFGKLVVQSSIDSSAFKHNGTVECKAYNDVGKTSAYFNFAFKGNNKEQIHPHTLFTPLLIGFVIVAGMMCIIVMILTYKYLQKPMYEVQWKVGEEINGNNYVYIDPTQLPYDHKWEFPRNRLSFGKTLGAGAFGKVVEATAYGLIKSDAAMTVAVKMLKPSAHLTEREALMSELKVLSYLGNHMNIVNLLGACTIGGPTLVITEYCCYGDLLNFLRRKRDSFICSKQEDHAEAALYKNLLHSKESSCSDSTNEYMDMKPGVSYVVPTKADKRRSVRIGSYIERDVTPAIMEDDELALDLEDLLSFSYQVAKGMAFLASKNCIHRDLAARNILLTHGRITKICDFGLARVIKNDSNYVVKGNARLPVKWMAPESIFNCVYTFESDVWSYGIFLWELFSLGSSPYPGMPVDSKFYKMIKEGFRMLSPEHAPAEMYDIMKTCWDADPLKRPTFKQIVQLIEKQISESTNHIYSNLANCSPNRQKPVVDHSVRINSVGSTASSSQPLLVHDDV
Sequence of wild type human KIT on cells (TF-1, Ba/F3-KIT, UT-7/EPO) (human) (P10721 26-976): as the sequence (P10721 26-976 V560G/D816V) above, with G535V, V791D counted along it

“mouse SCF in CHO-KL culture supernatant (from UniProt P20826 26-190) (ligand)” came in with a KIT surface down-regulation on UT-7/EPO cells after 1 hour (FACS with 104D2) in experiment [1] of 70%.

B1: affinity matured scFv-2D1C7 displayed on yeast (scFv)
chain: MAQVKLQESGGGLVQPGGSLRLSCAASGFTFDSYAMSWVRQAPGKGLEWVSYITSSSSTIYYVDSVKGRFTISRDNAKNSLYLQMNSLRDEDTAVYYCARLRNSEGYWYFDLWGRGTLVTVSSGGGGSGGGGSGGGGSQSVLTQDPAVSVALGQTVRITCQGDSLRSYYASWYQQKPGQAPLLVMYGENIRPSGIPDRFSGSTSGNSASLTITGAQAEDEADYYCNSRDSSGNHLNWVFGGGTKLTVLG
The Kd is the equilibrium constant for the complex coming apart. Consider B1, for which the Kd in experiment [2] came to 4.2 nM.

B2: scFv 3G1, soluble monovalent scFv (scFv)
scFv: MAQVQLVESWGGVAQPGRSLRLSCAASGFTFSSFAMHWVRQAPGKGLEWVAVTSYDGSNEYYADSVKGRFTISRDNSKNTLYLQMNSLRAEDTAVYYCAKAMVRGVTFGDLDYWGQGTLVTVSSGGGGSGGGGSGGGGSSELTQDPAVSVALGQTVRITCQGDSLRSYYASWYQQKPEQAPVLVIYGENSRPSGIPDRFSGSSSGNTASLTITGAQAEDEADYYCNSRDSSGTHLRVFGGGTKLTVLG
notes: Expressed from phagemid pHEN in E. coli TG1, used as culture supernatant
Take B2: the binding result in experiment [3] and in experiment [4] was “binds” each time.

B3: scFv 2D1, soluble monovalent scFv (scFv)
scFv: MAQVKLQESGGGLVQPGGSLRLSCAASGFTFDSYAMSWVRQAPGKGLEWVSYITSSSSTIYYVDSVKGRFTISRDNAKNSLYLQMNSLRDEDTAVYYCARLRNSEGYWYFDLWGRGTLVTVSSGGGGSGGGGSGGGGSQSALTQDPAVSVALGQTVRITCQGDSLRSYFASWYQQKPGQAPLLVMYGQNIRPSGIPDRFSGSSSGNSASLTITGAQAEDEADYYCNSRDSSYNHWVFGGGTKLTVLG
notes: as for B2
For B3, the binding result in experiment [3] and in experiment [4] was “binds” each time.

B4: affinity matured scFv-3G1A2 displayed on yeast (scFv)
chain: MAQVQLVESWGGVAQPGRSLRLSCAASGFTFSSFAMHWVRQAPGKGLEWVAVTSYDGSNEYYADSVKGRFTISRDNSKNTLYLQMNSLRAEDTAVYYCAKAMVRGVTFGDLDYWGQGTLVTVSSGGGGSGGGGSGGGGSSELTQDPAVSVALGQTVRKTCQGDSLKSYYASWYQQKPGQAPVLVIYGENSRPSGIPDRFSGSSSGNTASLTITGAQAEDEADYYCCSRATGGYHRIFGGGTKLTVLG
As to B4, in experiment [2], the Kd worked out at 1.7 nM.
